Reference: article PMC10754441

Molecular target: T1, TipR (Caulobacter crescentus NA1000) (UniProt A0A0H3C6G9)
T1 sequence: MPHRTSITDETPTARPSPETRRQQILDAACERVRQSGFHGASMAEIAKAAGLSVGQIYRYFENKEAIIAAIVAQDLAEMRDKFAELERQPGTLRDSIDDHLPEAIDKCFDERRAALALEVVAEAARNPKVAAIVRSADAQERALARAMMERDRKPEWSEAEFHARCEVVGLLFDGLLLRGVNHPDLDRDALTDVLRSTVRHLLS
Experiment: EMSA
Settings: EMSA: 40 mM Tris-HCl pH 7.6, 60 mM KCl, 0.1% glycerol, 240 ug calf DNA, 800 ug BSA, 100-200 ng probe, 30 min room temperature; 4% native TBE acrylamide gel

In the case of “GGCGGCGAGTCCCACGGTCGTCGCCGCGACCGAGCGTTGGAAATGCATGTTTGACCCCGGGAGGCGAGGGTCGCGCGGGCTCTTACCCTTGACGCGGCCACTATGATGAACGATTTGAGAATGAACGTTCATTCTCATGTGGGCTGGACATAAGAGCTGGAGTGTCGCAAGTCAACCTCCGGCGCCGCGCGTTTGGCTGACCTAACGGAAATGTAATGCCGCACAGGACTTC (double strand) [PacrA]”, the binding is reported as “binds”.
